# From PMC3656124, “DNA Topoisomerase II Is Involved in Regulation of Cyst Wall Protein Genes and Differentiation in Giardia lamblia” (PLoS Neglected Tropical Diseases, 2013)
# How the values were obtained:
# Topo IIC [1] = biological target: T1, Topo IIC (Giardia lamblia, UniProt E2RU90 489-1491); test: competition; 200-fold excess vs labeled IIBS; EMSA: 0.02 pmol 5'-labeled probe, 5 ng protein, 20 ul, 0.5 ug poly(dI-dC), 15 min, room temperature, 6% acrylamide gel; buffer, salt and pH only by citation; settings: protein: recombinant; tags: C-terminal V5-His; chain copies: 2
# T1 sequence: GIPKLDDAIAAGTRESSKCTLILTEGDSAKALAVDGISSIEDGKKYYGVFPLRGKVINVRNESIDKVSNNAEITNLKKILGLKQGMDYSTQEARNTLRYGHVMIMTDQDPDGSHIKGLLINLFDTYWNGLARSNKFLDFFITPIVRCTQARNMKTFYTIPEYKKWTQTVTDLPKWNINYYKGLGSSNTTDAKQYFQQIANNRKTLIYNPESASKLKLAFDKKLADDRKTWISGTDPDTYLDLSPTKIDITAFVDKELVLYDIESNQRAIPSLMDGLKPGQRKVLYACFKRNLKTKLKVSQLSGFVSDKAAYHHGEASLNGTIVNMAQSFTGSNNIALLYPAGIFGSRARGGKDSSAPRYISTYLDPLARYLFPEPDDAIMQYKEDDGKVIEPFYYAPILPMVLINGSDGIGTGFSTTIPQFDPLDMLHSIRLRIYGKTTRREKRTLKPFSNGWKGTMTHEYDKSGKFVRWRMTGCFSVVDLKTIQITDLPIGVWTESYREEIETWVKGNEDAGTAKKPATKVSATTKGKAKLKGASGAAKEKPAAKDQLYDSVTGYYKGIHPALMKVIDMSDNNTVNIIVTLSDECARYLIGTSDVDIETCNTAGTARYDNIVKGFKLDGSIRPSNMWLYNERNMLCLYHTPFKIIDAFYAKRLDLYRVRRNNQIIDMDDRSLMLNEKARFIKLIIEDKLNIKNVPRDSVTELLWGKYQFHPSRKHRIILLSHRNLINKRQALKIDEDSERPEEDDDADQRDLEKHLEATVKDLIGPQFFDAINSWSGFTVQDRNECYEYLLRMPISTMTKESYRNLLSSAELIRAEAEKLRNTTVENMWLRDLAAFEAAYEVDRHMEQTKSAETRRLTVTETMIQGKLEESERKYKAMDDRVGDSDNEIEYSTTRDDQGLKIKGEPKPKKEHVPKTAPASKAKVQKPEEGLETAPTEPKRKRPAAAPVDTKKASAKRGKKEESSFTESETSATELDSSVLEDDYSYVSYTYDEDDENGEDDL
# Myb2 = biological target: T2, Myb2 (Giardia lamblia, UniProt Q8ISM2 1-530); test: EMSA; EMSA: 0.02 pmol 5'-labeled probe, 5 ng protein, 20 ul, 0.5 ug poly(dI-dC), 15 min, room temperature, 6% acrylamide gel; buffer, salt and pH only by citation; settings: protein: recombinant
# T2 sequence: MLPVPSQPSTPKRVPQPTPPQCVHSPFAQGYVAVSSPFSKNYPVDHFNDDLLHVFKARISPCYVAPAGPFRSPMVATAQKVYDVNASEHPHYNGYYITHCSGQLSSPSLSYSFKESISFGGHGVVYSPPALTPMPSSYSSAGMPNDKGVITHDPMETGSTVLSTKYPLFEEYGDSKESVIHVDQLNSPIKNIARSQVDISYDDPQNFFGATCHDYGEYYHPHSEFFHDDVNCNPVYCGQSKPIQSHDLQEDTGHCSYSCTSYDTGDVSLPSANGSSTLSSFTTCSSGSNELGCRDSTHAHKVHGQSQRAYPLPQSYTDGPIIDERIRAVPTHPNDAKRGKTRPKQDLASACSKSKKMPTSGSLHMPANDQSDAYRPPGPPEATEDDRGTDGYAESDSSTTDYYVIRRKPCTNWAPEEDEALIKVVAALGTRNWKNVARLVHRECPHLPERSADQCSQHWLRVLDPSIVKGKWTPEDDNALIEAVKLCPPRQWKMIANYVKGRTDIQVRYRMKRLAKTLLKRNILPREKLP
# [2] = substrate: Nc1ncnc2c1ncn2[C@@H]1O[C@H](COP(=O)(O)OP(=O)(O)OP(=O)(O)O)[C@@H](O)[C@H]1O; test: coupled pyruvate kinase/lactate dehydrogenase ATPase assay (NADH, A340), Lineweaver-Burk; type: biochemical, Giardia duodenalis; settings: without DNA, 37 °C, 8 ng Topo II
# Topo IIC [3] = biological target: T1, Topo IIC; test: EMSA; EMSA: 0.02 pmol 5'-labeled probe, 5 ng protein, 20 ul, 0.5 ug poly(dI-dC), 15 min, room temperature, 6% acrylamide gel; buffer, salt and pH only by citation; settings: protein: recombinant; tags: C-terminal V5-His; chain copies: 2
Binder,binding result (Topo IIC [1]),also measured
cwp2-30/+8 (dsDNA) DNA 1: CAGCAGCTCAACAGTGGCTGGGAAAATAAAATGATCGC DNA 2: GCGATCATTTTATTTTCCCAGCCACTGTTGAGCTGCTG,binds,–
cwp1-90/-46 (dsDNA) DNA 1: CTGGCTAACAGTCTACAGTCTACAATTTACAGTATACAATCTACA DNA 2: TGTAGATTGTATACTGTAAATTGTAGACTGTAGACTGTTAGCCAG,–,binding result (Myb2; label: 5'-32P for Myb2): binds
Topo II (Giardia lamblia ATCC 50803) (protein) MAQKAKIQRVTGSEHVLLRPDMYVGSVSAAETFLWLYEPGQGLYYTKANIVPGLCKIFDEIIVNASDNKQRDSDRSAEHKMTYIKCSVDVASGAISVENDGVEGLLHFDEKEKMYLPTLAFGILMTSSNYDDTEQRVTGGRNGYGAKLTNIFSTKFTVLLQENGQVFEQTWTDNMKNTKPPRIEDVRDKKKNFIRFSFTPDYMKFGMTSGLDRDHAAYMMRRAVDVAGCNIGLKLIINGTELKIANFEQYARMVYRSINPEITQFYETSKGDTAQVNTNDSDSDLDIKSAAKAKPKTKRTKKTIETNSLLIPVDDLSKPSDWTHDYLKVIPVNKFWDIGLGYTDSGELVQVSFVNSINTTDGGTHVDAILDLIMSQLNDVLIKSFQQDAKNAKKLTRQQLKSCLVLFIRSLVVNPSFDSQTKISLKTDKAALLRSLGSTQAELATLATQLVKRIQEIRPLWNSLRQASYNQAAKLLTKTDGSKTSQLLGIPKLDDAIAAGTRESSKCTLILTEGDSAKALAVDGISSIEDGKKYYGVFPLRGKVINVRNESIDKVSNNAEITNLKKILGLKQGMDYSTQEARNTLRYGHVMIMTDQDPDGSHIKGLLINLFDTYWNGLARSNKFLDFFITPIVRCTQARNMKTFYTIPEYKKWTQTVTDLPKWNINYYKGLGSSNTTDAKQYFQQIANNRKTLIYNPESASKLKLAFDKKLADDRKTWISGTDPDTYLDLSPTKIDITAFVDKELVLYDIESNQRAIPSLMDGLKPGQRKVLYACFKRNLKTKLKVSQLSGFVSDKAAYHHGEASLNGTIVNMAQSFTGSNNIALLYPAGIFGSRARGGKDSSAPRYISTYLDPLARYLFPEPDDAIMQYKEDDGKVIEPFYYAPILPMVLINGSDGIGTGFSTTIPQFDPLDMLHSIRLRIYGKTTRREKRTLKPFSNGWKGTMTHEYDKSGKFVRWRMTGCFSVVDLKTIQITDLPIGVWTESYREEIETWVKGNEDAGTAKKPATKVSATTKGKAKLKGASGAAKEKPAAKDQLYDSVTGYYKGIHPALMKVIDMSDNNTVNIIVTLSDECARYLIGTSDVDIETCNTAGTARYDNIVKGFKLDGSIRPSNMWLYNERNMLCLYHTPFKIIDAFYAKRLDLYRVRRNNQIIDMDDRSLMLNEKARFIKLIIEDKLNIKNVPRDSVTELLWGKYQFHPSRKHRIILLSHRNLINKRQALKIDEDSERPEEDDDADQRDLEKHLEATVKDLIGPQFFDAINSWSGFTVQDRNECYEYLLRMPISTMTKESYRNLLSSAELIRAEAEKLRNTTVENMWLRDLAAFEAAYEVDRHMEQTKSAETRRLTVTETMIQGKLEESERKYKAMDDRVGDSDNEIEYSTTRDDQGLKIKGEPKPKKEHVPKTAPASKAKVQKPEEGLETAPTEPKRKRPAAAPVDTKKASAKRGKKEESSFTESETSATELDSSVLEDDYSYVSYTYDEDDENGEDDL,–,Km [2]: 210 µM
poly(A) with TT insertion (dsDNA) DNA 1: AAAAAAAAAAATTAAAAAAAAAA DNA 2: TTTTTTTTTTAATTTTTTTTTTT,binds,–
18S-60/-31 (dsDNA) DNA 1: CCGTGCCAGGCGGCGGCCCCCGCGCAGGGA DNA 2: TCCCTGCGCGGGGGCCGCCGCCTGGCACGG,–,binding result (Topo IIC [3]): no binding
poly(A) (dsDNA) DNA 1: AAAAAAAAAAAAAAAAAAAAAAA DNA 2: TTTTTTTTTTTTTTTTTTTTTTT,binds,–
topo II-85/-40 (dsDNA) DNA 1: TGTAAATCAATATTATCGTCCTACAGCTGCTAGCTTGGTGACAGGA DNA 2: TCCTGTCACCAAGCTAGCAGCTGTAGGACGATAATATTGATTTACA,–,binding result (Myb2; label: 5'-32P): binds
ran-51/-20 (dsDNA) DNA 1: TAAAATAAATTAAATCGAAATTAAAACTTTAA DNA 2: TTAAAGTTTTAATTTCGATTTAATTTATTTTA,binds,–
18S-30/-1 (dsDNA) DNA 1: GGCGCCCGGCCCGCGGCGCCCGCGCCCGGC DNA 2: GCCGGGCGCGGGCGCCGCGGGCCGGGCGCC,–,binding result (Topo IIC [3]): no binding
cwp3-30/+10 (dsDNA) DNA 1: GTCTTTCCCAAAAAATAAGTTACTACTGATATGTTTTCTC DNA 2: GAGAAAACATATCAGTAGTAACTTATTTTTTGGGAAAGAC,binds,–
poly(A) with TC insertion (dsDNA) DNA 1: AAAAAAAAAAATCAAAAAAAAAA DNA 2: TTTTTTTTTTGATTTTTTTTTTT,binds,–
cwp1-45/-1 (dsDNA) DNA 1: GTTTACAACTCTCAGATCAAGAAACACAGAAATAAAATATCAGGG DNA 2: CCCTGATATTTTATTTCTGTGTTTCTTGATCTGAGAGTTGTAAAC,–,binding result (Topo IIC [3]): binds
